The source of these data is article PMC6224593.

Some results are limits rather than exact numbers.

Test [1] has as its target ComR of Streptococcus mutans UA159 (Streptococcus mutans UA159). Description: ITC; XIP 600 μM injected into ComR 20 μM; 20 mM Tris pH 7.5, 100 mM NaCl, 1 mM β-ME with matched DMSO; VP-ITC, 25 °C; one-site model.
Test [2] has the same target.
Test [3] has the same target. Description: ITC; paratox 240 μM injected into ComR 20 μM; 20 mM Tris pH 7.5, 100 mM NaCl, 1 mM β-ME; VP-ITC, 25 °C; one-site model.

In test [1], “XIP (sigX-inducing peptide) of Streptococcus mutans UA159” gave a Kd of 3600 nM and a stoichiometry N of 1.01.

As to “paratox (Prx) of Streptococcus pyogenes MGAS315 (from UniProt Q4VUT1 1-60) (natural protein)”, in test [2], the PsigX-luxAB reporter in S. mutans with MGAS315 prx in trans, 200 nM XIP, against the empty vector is more than 2 fold. Besides, in test [3], the Kd is 133 nM and the stoichiometry N is 0.95. In test [2], “paratox of Streptococcus pyogenes MGAS5005, prophage MGAS5005.3 (prx3) (from UniProt Q4VUT1 1-60) (natural protein)” displayed a PsigX-luxAB reporter in S. mutans with MGAS5005 prx3 in trans, 200 nM XIP, against the empty vector of more than 2 fold. “paratox of Streptococcus pyogenes MGAS8232 (from UniProt Q4VUT1 1-60) (natural protein)” had a PsigX-luxAB reporter in S. mutans with MGAS8232 prx in trans, 200 nM XIP, against the empty vector in test [2] of more than 2 fold.
